The results in this text go back to patent US10155796B2, “Compositions and methods for inhibiting tumor cells by inhibiting the transcription factor ATF5” (The Trustees of Columbia University in the City of New York, priority 2013, dated 2018).

In data set [1] the test system is U87 human glioblastoma cells. As to the kind of experiment: Cell viability, MTA assay. Format: cell-based. The method, then: (§1) FIG. 19 depicts recombinant TAT-d/n-ATF5 (3 μM) treatment for 3-5 days decreasing viability of two human and one mouse GMB cell line as established by MTA assay.
FIG. 20 depicts synthetic PEN-d/n-ATF5 treatment decreasing cell viability of cultured U87 human glioblastoma cells as established by MTA assay. 5 days treatment at indicated concentrations (μM).
5 days treatment at indicated concentrations (μM), as detected using an MTA assay.

In data set [2] the test system is primary GS9-6 human glioblastoma stem cells. Briefly: Annexin V/PI staining and flow cytometry of spheres. Conditions: 6 days of treatment. Format: cell-based. An excerpt:
FIG. 22 depicts synthetic PEN-d/n-ATF5 promoting apoptotic death of primary GS9-6 human glioblastoma stem cells growing in culture as spheres. 6 days of treatment and data determined by Annexin V/PI staining and flow cytometry
FIG. 23 depicts recombinant PEN-d/n-ATF5 promoting apoptotic death of primary GS9-6 human glioblastoma stem cells growing in culture as spheres. 5 days of treatment and data determined by Annexin V/PI staining and flow cytometry.
Data reflects 6 days of treatment. Data determined by Annexin V/PI staining and flow cytometry.
5 days treatment. Data determined by Annexin V/PI staining and flow cytometry.
Background: Flow cytometry measures light scatter and fluorescence of single cells or particles in a stream.

The subject of data set [3] is C6 (rat glioblastoma). As to the kind of experiment: Cell line susceptibility testing. In kind it is cell-based. Conditions: 1-3 μM range. The method, then: (§2) For example, but not by way of limitation, cell lines shown through testing to be susceptible to TAT-d/n-ATF5 (1-3 μM range) include: U87 (human glioblastoma); U373 (human glioblastoma); LN229 (human glioblastoma); C6 (rat glioblastoma); Mel501 (human melanoma); H2452 (human mesothelioma); MDA-MB-468 (human breast cancer). In addition, a non-limiting list of cell lines shown through testing to be susceptible to PEN-d/n-ATF5 (3 μM) include: Panc-1 (human pancreatic cancer); SH-SYSY (human neuroblastoma cells); and HCT-116 (colon-carcinoma cancer). The method of the present invention can be performed in vitro as well as in vivo in a subject. As used herein, “apoptosis” refers to cell death which is wholly or partially genetically controlled.

Data set [4] deals with H2452 (human mesothelioma). As to the kind of experiment: Cell line susceptibility testing. In kind it is cell-based. The conditions noted are these: 1-3 μM range. The protocol:
as §2

Data set [5] deals with LN229 (human glioblastoma). Briefly: Cell line susceptibility testing. Conditions: 1-3 μM range. Format: cell-based. The protocol:
as §2

The test system of data set [6] is MDA-MB-468 (human breast cancer). As to the kind of experiment: Cell line susceptibility testing. In kind it is cell-based. Conditions: 1-3 μM range. The method, then: as §2
In data set [7] the test system is Mel501 (human melanoma). Briefly: Cell line susceptibility testing. Format: cell-based. The conditions noted are these: 1-3 μM range. The method, then:
as §2

In data set [8] the test system is U373 (human glioblastoma). Briefly: Cell line susceptibility testing. The conditions noted are these: 1-3 μM range. Format: cell-based. The protocol: as §2
Data set [9] has as its system U87 (human glioblastoma). Briefly: Cell line susceptibility testing. Format: cell-based. Conditions: 1-3 μM range. The method, then:
as §2

Data set [10] concerns MEL501 melanoma cells. Briefly: Apoptotic nuclei (Hoescht dye) in melanoma cells. Format: cell-based, human. Conditions: four days, concentrations in μM per FIG. 13. The protocol:
TAT-linked dominant-negative ATF5 peptide at the indicated concentrations (in μM) was added to medium of MEL501 melanoma cells. Four days later the cells were stained with Hoescht dye and the cells were stained for proportion with apoptotic nuclei.
TAT-linked dominant-negative ATF5 peptide was added to medium of MEL501 melanoma cells at the concentrations (in μM) indicated in FIG. 13. Four days later the cells were stained with Hoescht dye and the cells were stained for proportion with apoptotic nuclei.

The test system of data set [11] is endogenous ATF5. Briefly: Western immunoblotting for endogenous ATF5 in U373 glioblastoma cells. Format: cell-based, human. Conditions: 17 hrs. The method, then: TAT-linked dominant-negative ATF5 peptide at the indicated concentrations (in μM) was added to medium of U373 glioblastoma cells for 17 hrs day and the cells were then harvested and analyzed by Western immunoblotting for levels of endogenous ATF5. […] As previous studies have shown that tumor cells require endogenous ATF5 to survive, the mechanism of action by which the cell-penetrating TAT-ZIP peptide kills may be by causing loss of the endogenous ATF5 protein. Note also the smear above the endogenous ATF5 when the TAT-ZIP peptide is present.
TAT-linked dominant-negative ATF5 peptide was added to medium of U373 glioblastoma cells at the concentrations (in μM) indicated in FIG. 14 for 17 hrs day and the cells were then harvested and analyzed by Western immunoblotting for levels of endogenous ATF5. […] As previous studies have shown that tumor cells require endogenous ATF5 to survive, but without being bound by theory, the mechanism of action by which the cell-penetrating TAT-ZIP peptide kills may be by causing loss of the endogenous ATF5 protein. Note also the smear above the endogenous ATF5 when the TAT-ZIP peptide is present.
(Immunoblotting shows a protein as a band on a membrane.)

The subject of data set [12] is DDIT3 (CHOP). As to the kind of experiment: Western immunoblotting for CHOP in various tumor cell lines. Conditions: times and doses per FIG. 15. Format: cell-based. The method, then: Cells were treated with TAT-d/n-ATF5 for the indicated times at the indicated doses (in μM) and then harvested and analyzed by Western immunoblotting for expression of CHOP and other non-responsive proteins.
TAT-d/n-ATF5 (TAT-ZIP) peptide induces expression of the pro-death gene DDIT3 (CHOP) in various tumor cell lines. Cells were treated with TAT-d/n-ATF5 for the times and doses (in μM) indicated in FIG. 15 and then harvested and analyzed by Western immunoblotting for expression of CHOP and other non-responsive proteins.

Data set [13] has as its system U87 cells. Briefly: Apoptotic nuclei in U87 cells after CHOP silencing with siRNA. The conditions noted are these: siCHOP versus control siRNA, then peptide for 2 days. Format: cell-based, human. The protocol: Cells were treated with siCHOP to silence CHOP expression (top Western immunoblot) or with control siRNA. They were then exposed to TAT-d/n-ATF5 for 2 days and assessed for proportion of cells with apoptotic nuclei. The data support the idea that part of the mechanism by which TAT-d/n-ATF5 kills tumor cells is by increasing their expression of CHOP which in turn mediates death.
Cells were treated with siCHOP to silence CHOP expression (top Western immunoblot of FIG. 16) or with control siRNA. They were then exposed to TAT-d/n-ATF5 for 2 days and assessed for proportion of cells with apoptotic nuclei.

Data set [14] deals with BCL2 survival protein. Briefly: Western immunoblotting for BCL2 in U87 cells. In kind it is cell-based, human. The conditions noted are these: 30 hrs. The protocol: Cultured U87 human glioblastoma cells were treated with the indicated concentrations of TATZIP (TAT-d/n-ATF5 peptide) (in μM) for 30 hrs. The cells were then harvested and assessed by Western immunoblotting for expression of the survival protein BCL2. These findings indicate that in addition to elevating pro-death CHOP, TAT-d/n-ATF5 may also kill tumor cells by reducing their levels of the BCL2 survival protein.
As outlined in FIG. 17, cultured U87 human glioblastoma cells were treated with the indicated concentrations of TATZIP (TAT-d/n-ATF5 peptide) (in μM) for 30 hrs. The cells were then harvested and assessed by Western immunoblotting for expression of the survival protein BCL2. These findings indicate that in addition to elevating pro-death CHOP, TAT-d/n-ATF5 may also kill tumor cells by reducing their levels of the BCL2 survival protein.

For data set [15], the system named is U87 glioblastoma cells. As to the kind of experiment: Combination with temozolomide: apoptotic nuclei in U87 cells. The conditions noted are these: one day, sub-lethal TZIP 1 μM and TMZ 50 μM, separately or in combination. In kind it is cell-based, human. The protocol: Cells were cultured for one day with sub-lethal levels of TAT-d/n-ATF5 (TZIP 1 μM) and TMZ (50 μM) either separately or in combination, and then assessed for proportion of cells with apoptotic nuclei. TMZ is presently the first-line treatment for human GBM. The data reveal that TAT-d/n-ATF5 not only functions in presence of TMZ, but that the two drugs act in synergy to kill GBM cells.
As outlined in FIG. 18, cells were cultured for one day with sub-lethal levels of TAT-d/n-ATF5 (TZIP 1 μM) and TMZ (50 μM) either separately or in combination, and then assessed for proportion of cells with apoptotic nuclei. TMZ is presently the first-line treatment for human GBM. The data reveal that TAT-d/n-ATF5 not only functions in presence of TMZ, but that the two drugs act in synergy to kill GBM cells.

Data set [16] relates to U373. Briefly: Cell viability, MTA assay. Format: cell-based, human. Conditions: 3 μM, 3-5 days. The protocol:
as §1

Data set [17] has as its system MSG Cells. Briefly: Cell viability, MTA assay. Format: cell-based, mouse. Conditions: 3 μM, 3-5 days. The protocol: as §1
The subject of data set [18] is U87 human glioblastoma cells. In kind it is cell-based. An excerpt: FIG. 21 depicts recombinant TAT-d/n-ATF5 treatment promoting death of cultured U87 human glioblastoma cells as indicated by Annexin V/PI staining and flow cytometry. Proportions of viable cells are shown in lower left quadrant (88% control vs 58% treated). Dying cell proportions are in the lower right and upper right quadrants (9% in controls vs 36% in treated).
As outlined in FIG. 21, Recombinant TAT-d/n-ATF5 promotes death of cultured U87 human glioblastoma cells as indicated by Annexin V/PI staining and flow cytometry. Proportions of viable cells are shown in lower left quadrant (88% control vs 58% treated). Dying cell proportions are in the lower right and upper right quadrants (9% in controls vs 36% in treated).

Chain of endogenous ATF5 (Q9Y2D1 208-282 limits assumed): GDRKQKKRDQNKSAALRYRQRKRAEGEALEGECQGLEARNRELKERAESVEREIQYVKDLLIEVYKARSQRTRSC

B1: synthetic PEN-d/n-ATF5: chemically synthesized Penetratin-linked dominant-negative ATF5 peptide; probably SEQ ID NO: 19 (peptide)
chain: RQIKIWFQNRRMKWKKLEQRAEELARENEELLEKEAEELEQENAELEGECQGLEARNRELKERAESV
In the case of B1, the cell viability result in data set [1] (5 days treatment, concentrations (μM) per FIG. 20) is “decreases cell viability”. In addition, the apoptotic death entry in data set [2] is reported as “promotes apoptotic death”.

B2: TAT-d/n-ATF5: TAT-linked dominant-negative ATF5 peptide, recombinant; probably SEQ ID NO: 17 (protein)
chain: MGSSHHHHHHSSGLVPRGSHMLEYGRKKRRQRRRYPYDVPDYAMASMTGGQQMGRDPDLEQRAEELARENEELLEKEAEELEQENAELEGECQGLEARNRELRERAESV
B2: the “susceptibility of cell line” value in [3], in data set [4], in [5], in [6], in [7] and in data set [8] was “susceptible” throughout. Besides, in [9], the “susceptibility of cell line” value is “susceptible”. Further, in [10], the “proportion of cells with apoptotic nuclei” value is listed as “promoted apoptosis in a dose-dependent fashion”. Further, the “levels of endogenous ATF5” value in data set [11] is reported as “greatly reduces expression of endogenous ATF5”. The “expression of CHOP” value in data set [12] is given as “elevation of CHOP in all cases”. Also, the “effect of silencing of CHOP with siRNA on death caused by the peptide” value in data set [13] was “partially protects”. Further, in [14], the “expression of the survival protein BCL2” value is reported as “down-regulates BCL2 survival protein”. The “cell killing in combination with temozolomide (proportion of cells with apoptotic nuclei)” value in [15] was “synergizes with temozolomide (TMZ) to kill”. Besides, the cell viability entry in data set [1] (3 μM, 3-5 days) is on record as “decreases viability”; in data set [16], “decreases viability”; in [17], “decreases viability”. Besides, the “proportion of viable cells (lower left quadrant)” value in data set [18] came to 58%. Besides, in [18] (treated, controls 9%), the “dying cell proportion (lower right and upper right quadrants)” value was found to be 36%.
